# Tests used:
# [1] = biological target: melanocortin receptor 4 (MC4R) (UniProt P32245); assay: cell-based or functional assay
# [2] = biological target: melanocortin receptor 1 (MC1R) (UniProt Q01726); assay: cell-based or functional assay
# [3] = biological target: GnRH receptor (GnRHR or LHRHR) (UniProt P30968); assay: cell-based or functional assay
# [4] = biological target: kappa opioid receptor (OPRK1) (UniProt P41145); assay: cell-based or functional assay
# [5] = biological target: bradykinin receptor 2 (BDKRB2) (UniProt P30411); assay: cell-based or functional assay
# Sequence of bradykinin receptor 2 (BDKRB2) (P30411 whole entry): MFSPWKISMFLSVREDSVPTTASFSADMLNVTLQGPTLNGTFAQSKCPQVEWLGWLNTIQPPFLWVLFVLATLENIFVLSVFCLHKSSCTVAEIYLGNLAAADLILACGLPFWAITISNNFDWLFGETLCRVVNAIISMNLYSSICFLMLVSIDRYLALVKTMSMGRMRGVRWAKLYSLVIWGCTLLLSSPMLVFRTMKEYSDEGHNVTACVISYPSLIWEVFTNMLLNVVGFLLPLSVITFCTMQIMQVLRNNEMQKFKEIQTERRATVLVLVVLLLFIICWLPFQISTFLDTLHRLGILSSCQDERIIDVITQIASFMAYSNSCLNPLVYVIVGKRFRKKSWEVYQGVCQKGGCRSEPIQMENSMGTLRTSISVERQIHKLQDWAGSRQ
# [6] = biological target: FITC-labled GnRH molecule (a peptide) (UniProt P01148); assay: Centricon filter release assay: FITC-GnRH that passed into the lower chamber with nongel-forming peptide at 1 mg/100 ml (control without carrier 72.50)
# [7] = biological target: FITC-labled GnRH molecule (a peptide) (UniProt P01148); assay: Centricon filter release assay: FITC-GnRH that passed into the lower chamber with nongel-forming peptide at 1 mg/10 ml (control without carrier 72.50)
# [8] = biological target: PTH receptor 1 (PTHR1) (UniProt Q03431); assay: cell-based or functional assay
# Sequence of PTH receptor 1 (PTHR1) (Q03431 27-593 limits assumed): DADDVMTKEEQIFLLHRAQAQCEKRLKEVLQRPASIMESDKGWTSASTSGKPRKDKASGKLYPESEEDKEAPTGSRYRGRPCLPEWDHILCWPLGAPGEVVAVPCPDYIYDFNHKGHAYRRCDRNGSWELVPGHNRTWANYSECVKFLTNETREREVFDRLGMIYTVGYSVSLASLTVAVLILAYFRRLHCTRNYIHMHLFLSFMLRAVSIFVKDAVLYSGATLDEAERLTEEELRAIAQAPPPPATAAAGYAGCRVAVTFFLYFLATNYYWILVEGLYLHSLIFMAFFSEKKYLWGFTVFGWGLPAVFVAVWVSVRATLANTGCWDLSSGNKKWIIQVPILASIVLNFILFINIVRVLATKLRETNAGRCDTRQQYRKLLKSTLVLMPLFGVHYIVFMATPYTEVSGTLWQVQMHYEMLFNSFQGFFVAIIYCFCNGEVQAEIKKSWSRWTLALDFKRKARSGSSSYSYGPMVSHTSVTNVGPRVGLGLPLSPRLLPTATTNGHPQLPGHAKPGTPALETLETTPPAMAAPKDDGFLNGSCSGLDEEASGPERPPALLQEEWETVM
# Sequence of melanocortin receptor 1 (MC1R) (Q01726 whole entry): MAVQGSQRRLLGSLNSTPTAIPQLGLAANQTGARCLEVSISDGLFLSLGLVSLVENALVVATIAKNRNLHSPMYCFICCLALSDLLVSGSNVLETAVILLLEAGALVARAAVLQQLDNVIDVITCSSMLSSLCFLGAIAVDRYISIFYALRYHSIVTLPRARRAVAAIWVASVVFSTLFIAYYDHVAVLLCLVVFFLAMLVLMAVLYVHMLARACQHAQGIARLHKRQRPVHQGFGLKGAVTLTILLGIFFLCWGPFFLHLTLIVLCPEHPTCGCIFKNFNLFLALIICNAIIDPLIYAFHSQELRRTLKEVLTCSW
# Sequence of melanocortin receptor 4 (MC4R) (P32245 whole entry): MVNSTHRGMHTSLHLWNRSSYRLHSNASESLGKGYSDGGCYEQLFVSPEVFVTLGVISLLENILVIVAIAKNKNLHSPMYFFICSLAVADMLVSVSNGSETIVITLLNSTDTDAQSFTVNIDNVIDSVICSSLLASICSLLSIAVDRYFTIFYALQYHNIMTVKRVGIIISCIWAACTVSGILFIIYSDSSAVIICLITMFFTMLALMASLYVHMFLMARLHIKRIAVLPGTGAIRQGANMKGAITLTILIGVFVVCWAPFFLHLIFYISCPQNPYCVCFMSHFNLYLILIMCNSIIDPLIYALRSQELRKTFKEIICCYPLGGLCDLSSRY
# Sequence of GnRH receptor (GnRHR or LHRHR) (P30968 whole entry): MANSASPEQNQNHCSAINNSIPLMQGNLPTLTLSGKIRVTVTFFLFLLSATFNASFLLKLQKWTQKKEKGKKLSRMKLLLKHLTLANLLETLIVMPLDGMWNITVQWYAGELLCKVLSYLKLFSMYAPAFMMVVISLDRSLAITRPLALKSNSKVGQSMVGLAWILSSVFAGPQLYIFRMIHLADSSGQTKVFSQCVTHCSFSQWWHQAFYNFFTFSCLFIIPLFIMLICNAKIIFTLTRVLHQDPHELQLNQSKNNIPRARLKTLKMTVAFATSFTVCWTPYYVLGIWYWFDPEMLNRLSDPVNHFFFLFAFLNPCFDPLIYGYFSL
# Sequence of kappa opioid receptor (OPRK1) (P41145 whole entry): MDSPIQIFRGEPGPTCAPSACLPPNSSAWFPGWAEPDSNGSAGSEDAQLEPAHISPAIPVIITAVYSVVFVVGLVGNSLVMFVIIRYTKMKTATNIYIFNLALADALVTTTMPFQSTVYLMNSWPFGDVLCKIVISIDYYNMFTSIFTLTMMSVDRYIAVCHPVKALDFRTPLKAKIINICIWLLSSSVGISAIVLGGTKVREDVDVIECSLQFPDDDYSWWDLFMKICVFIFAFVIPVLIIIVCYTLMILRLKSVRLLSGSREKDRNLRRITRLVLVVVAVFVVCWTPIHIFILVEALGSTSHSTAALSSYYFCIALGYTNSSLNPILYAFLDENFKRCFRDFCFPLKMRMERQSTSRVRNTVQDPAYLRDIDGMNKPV
substance,measurement,setting,value
Melanotan II peptide (positive control),"EC50 (nM), MC4R cAMP agonistic assay",[1],2 nM
same,"Max Activity % of positive control, MC4R cAMP agonistic assay (% of positive control)",[1],101
same,"EC50 (nM), MC1R cAMP agonistic assay",[2],0.56 nM
same,"Max Activity % of positive control, MC1R cAMP agonistic assay (% of positive control)",[2],102
"SEQ ID NO: 203, Pal-HSY-(D-Nal)-(D-Cpa)-(D-Pal)-SY-(D-Cit)-LRP-(D-Ala)-NH2, gel-forming GnRHR antagonist analog (peptide)","IC50 (nM), GnRHR calcium flux antagonistic assay",[3],< 0.51 nM
same,"Max Activity % of positive control, GnRHR calcium flux antagonistic assay (% of positive control)",[3],109
"SEQ ID NO: 214, Pal-SSPHSY-miniPEG-(D-Phe)-(D-Phe)-Trp-(D-Arg), gel-forming kappa opioid receptor agonist (peptide)","EC50 (nM), OPRK1 cAMP agonistic assay",[4],272 nM
same,"Max Activity % of positive control, OPRK1 cAMP agonistic assay (% of positive control)",[4],62
"SEQ ID NO: 228, Pal-HSYRC-(D-Ala)-H-(D-Phe)-RWC-NH2, conjugated gel-forming setmelanotide analog (peptide)","EC50 (nM), MC4R cAMP agonistic assay",[1],0.15 nM
same,"Max Activity % of positive control, MC4R cAMP agonistic assay (% of positive control)",[1],115
"SEQ ID NO: 234, Pal-HSY-(D-Arg)-Arg-Pro-Hyp-Gly-Thi-Ser-(D-Tic)-Oic-Arg-NH2, conjugated bradykinin receptor antagonist (peptide)","IC50 (nM), BDKRB2 arrestin antagonistic assay",[5],53.3 nM
same,"Max Activity % of positive control, BDKRB2 arrestin antagonistic assay (% of positive control)",[5],112
"HOE140 (a BKR2 antagonist), (D-Arg)-Arg-Pro-Hyp-Gly-Thi-Ser-(D-Tic)-Oic-Arg (peptide)","IC50 (nM), BDKRB2 arrestin antagonistic assay",[5],132 nM
same,"Max Activity % of positive control, BDKRB2 arrestin antagonistic assay (% of positive control)",[5],100
"SEQ ID NO:133, Pal-VGSNTY-NH2, nongel-forming peptide",Fluorescent Reading (average of duplicates),[6],71
same,Fluorescent Reading (average of duplicates),[7],55.4
PTH(1-34) peptide (positive control) (from UniProt P01270 32-65),"EC50 (nM), PTHR1 cAMP agonistic assay",[8],0.8 nM
same,"Max Activity % of positive control, PTHR1 cAMP agonistic assay (% of positive control)",[8],101
"SEQ ID NO: 224, Pal-HSYS-Nle-EH-(D-Phe)-RWGKPV-NH2, conjugated gel-forming Afamelanotide (melanotan I) analog (peptide)","EC50 (nM), MC1R cAMP agonistic assay",[2],< 0.05 nM
same,"Max Activity % of positive control, MC1R cAMP agonistic assay (% of positive control)",[2],120
Cetrorelix (positive control) (peptide),"IC50 (nM), GnRHR calcium flux antagonistic assay",[3],0.08 nM
same,"Max Activity % of positive control, GnRHR calcium flux antagonistic assay (% of positive control)",[3],91.4

# — patent US20200405868A1, “GEL-FORMING POLYPEPTIDES” (priority 2018, published 2020)
